Laboratory results as given in PMC9616769.
Ends that are not written are not given here. * marks the point of attachment. pNA = O=[N+]([O-])c1ccc(N*)cc1

Molecular target: NT-mini (catalytically competent fragment of human neurotrypsin, Gly497-Leu875) (human)

Row | Km of cleavage of the pNa peptide by NT-mini (Michaelis-Menten; 1 µM enzyme, 37 °C, 5 mM CaCl2, GF buffer pH 8) | Binder
1 | 6.16 mM | KGLVEK-pNA (also: termed β-peptide, meaning not given here) [β-peptide (6-mer, KGLVEK) with a C-terminal p-nitroaniline]
2 | 17.2 mM | GLVEK-pNA (also: termed β-peptide, meaning not given here) [β-(5 mer) peptide with a C-terminal p-nitroaniline]
